Laboratory results taken from the supplement of paper PMC12455559.
± gives the standard deviation of the averaged measurements.

Experiments:
[1] = melting temperature (DSF); higher = more thermostable
In short: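 On a Bio-Rad CFX96, fluorescence of 45 μL enzyme (0 to 0.3 mg/mL) mixed with 5 μL 5X Sypro Orange in sealed PCR plates was followed from 25 °C through 250 cycles of 0.3 °C, with a 0.3 °C/s ramp. The enzymes had been expressed in E. coli C41(DE3), taken up on nickel beads and released by SUMO protease. Melting temperature, measured by differential scanning fluorimetry, is the value given.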

[2] = purified protein yield per well (BCA); higher = higher soluble expression
In short: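 The measured quantity is purified protein yield per well, determined with the Pierce Rapid Gold BCA kit. Anything below 25 ug (0.1 mg/mL) lies under the detection threshold. Enzymes were expressed in E. coli C41(DE3) in 2 mL autoinduction cultures with 100 µg/mL kanamycin at 37 °C for 2 h, then 18 °C for 40 h, and purified on an OT-2 robot using Ni-charged magnetic beads and SUMO protease release.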

[3] = PET hydrolysis, aromatic products released after 48 h (umol product/mg enzyme); higher = more PET depolymerization activity
In short: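 Hydrolysis activity toward PET is reported as supernatant aromatic product per mg enzyme. To measure it, 5 μg (50 μL) of tagless enzyme was incubated with 3.5 mg amorphous PET film or crystalline PET powder in 450 μL buffer for 48 h at 40 or 60 °C in sealed, unshaken plates. The product was quantified by absorbance at 260 and 280 nm relative to buffer blanks.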

[4] = substrate: cryPow, 40 °C, pH 4.5
[5] = substrate: cryPow, 40 °C, pH 5.5
[6] = substrate: cryPow, 40 °C, pH 6.5
[7] = substrate: cryPow, 40 °C, pH 7.5
[8] = substrate: cryPow, 60 °C, pH 4.5
[9] = substrate: cryPow, 60 °C, pH 5.5
[10] = substrate: cryPow, 60 °C, pH 6.5
[11] = substrate: cryPow, 60 °C, pH 7.5
[12] = substrate: aFilm, 40 °C, pH 4.5
[13] = substrate: aFilm, 40 °C, pH 5.5
[14] = substrate: aFilm, 40 °C, pH 6.5
[15] = substrate: aFilm, 40 °C, pH 7.5
[16] = substrate: aFilm, 60 °C, pH 4.5
[17] = substrate: aFilm, 60 °C, pH 5.5
[18] = substrate: aFilm, 60 °C, pH 6.5
[19] = substrate: aFilm, 60 °C, pH 7.5
[20] = substrate: cryPow, 40 °C, pH 8.5

Sequence	melting temperature [1] [C]	purified protein yield per well [2] [µg]	PET hydrolysis [3, 4]	PET hydrolysis [3, 5]	PET hydrolysis [3, 6]	PET hydrolysis [3, 7]	PET hydrolysis [3, 8]	PET hydrolysis [3, 9]	PET hydrolysis [3, 10]	PET hydrolysis [3, 11]	PET hydrolysis [3, 12]	PET hydrolysis [3, 13]	PET hydrolysis [3, 14]	PET hydrolysis [3, 15]	PET hydrolysis [3, 16]	PET hydrolysis [3, 17]	PET hydrolysis [3, 18]	PET hydrolysis [3, 19]	PET hydrolysis [3, 20]	PET hydrolysis ([3]; substrate: cryPow, 60 °C, pH 8.5)
ATPDHAATADHASAHHHAAYPVSQQTIPATDGTGFGAATLYAPQGTGRKTLGAIVVAPGLKGDQSDLAWLAQDLAGEGFIVLNMDTLGKYDLPNQRSYEMLAAAKYLATASSVKDQVDPADIGVVGYSLGGGGALQAAVEQHGLKAAVALMPYDFPAGTTDPYKPTESPTYPGITTPTLVITGQADTTAPAASMGKPAYDSIPASTPKQYLELRGADHLAARATTNGTVRDAVTNFLKVYLDGNSAYRKYVCPAPPTSAAISESASSCPR [ESM174]	44.5	86.9	< 3	< 3	< 3	< 3	< 3	< 3	< 3	< 3	–	–	–	–	–	–	–	–	–	–
ATTSFQRGPAPTTASIQATSGPFATSQTTVSRISVTGFGGGDIYYPTSTSSGTFGAVAIAPGYTALRSSMAWLAPRIASQGFVVFNIDTLTTSDQPATRGTELLAALDYLTTRSTVRTRIDTTRLAVMGHSMGGGGTLEAAKSRPSLQAAIPLTPWDLNKSFAGLAVPTLIIGAQADTVAPVSQHAKPFFTSLPSGLDKAYLELAGASHFAPNTSNTTIASISIAWLKRFVDDDTRYDQFLCPGPTVGTAVSQFTTNCPHIS [ESM156]	40.6	272	< 3	9.5 ± 0.71	14.5 ± 5	< 3	< 3	< 3	< 3	< 3	< 3	< 3	< 3	< 3	< 3	< 3	< 3	< 3	–	–
ATTSYQRGPNPTEQSVRAANGPFAYSQFAIPDAEATGFGEGTIYYPNNTSVGTFGGVVIAPGFNADQNSTVWLGKRLASHGFVAVTITTHELNDQPYERGKQILAALDYLTGQSPAFVRSRLDPARLAAVGHSMGGGGTLFAAAQRPSLKAIVPLAPWALAKNWSNVQVPTMILSGAQDASAPPAEHAEKFYASLTSAPEKAYAKLDVNHVRFAWEHPLIGKLVVSWLKRFVDEDTRYTQFLCPTATGAVLLEYRATCPLG [DP026]	66.1	164	–	3	< 3	< 3	–	< 3	< 3	< 3	–	–	–	–	–	–	–	–	< 3	< 3
ATYERGPAPTAQSIVADGPFSYATVAVPTQSSFGGGTIYYPTDTNQGTFGAVAVIPGFVGSLDNVAWIGSRLASHGFVVFTVATTNPFAFPGDRAAQLQAALTYLTQSSSVRDRVDPNRLAVAGHSMGGGGALEAVRNNPALKAAVALQPWDFGQNFSAIAVPSMIVGAQNDQVATVTSHSEPFYDQIPAGAEKAYLELAGAGHDAGQSVSNATQAGSMLSWLKRYVDEDTRYEQFLCPAPSGPSVAEYRDTCPA [DP045]	45.7	37	–	< 3	< 3	< 3	–	–	–	–	–	–	–	–	–	–	–	–	< 3	–
AVHGPDPTDALLEASRGPYATAQIDVSALAVSGFGGGTIYYPTTTSEGTFGGVAIAPGYTADKSSLAWLAARLASHGFVVFNIDTLTRLDQPDSRGRQLLAALDYLTQRSSVRSRVDASRLGVMGHSMGGGGTLEAAVSRPSLRAAVPLTPWNLDKTWPEVRTPTLIIGADLDTIAPVLTHAEPFYASLPSTLDKAYLELNNATHFAPNITDTTIGKYAVAWMKRFIDDDTRYNRFLCPGPSWSLSVEEYRSTCPF [TEP061]	51.4	299	< 3	< 3	< 3	2 ± 2.8	< 3	< 3	< 3	< 3	< 3	< 3	< 3	< 3	< 3	< 3	< 3	< 3	–	–
CVTPAPPPAPDVATVTVGAGNGFGGGTIYYPQGATGRLPVVAASPGFTENQNAVGWYGPLLAREGNIVITIDTNSPFDSPTSRADQLLAAIDYVVNRSSVASIADGSRTAVMGHSMGGGGSLEAALKRPGLKAIIPLAPWNTTTNFSGVRVPTLIVGCQNDAIAPVGSHAEPFYQSIPATTPKAYLEIAGGDHFCTNSENPTIANYVVAWTDRFLQGDTSASSRLCPPPPAGGSISEYRANCPY [ESM050]	82.3	236	13.5 ± 0.71	50.5 ± 11	84.5 ± 6.4	134 ± 8.5	40 ± 1.4	106 ± 2.1	132 ± 11	140 ± 12	< 3	5	15.5 ± 0.71	7.5 ± 0.71	5	22.5 ± 5	15 ± 1.4	10.5 ± 0.71	–	–
DDGYQRGPDPTEESIEAPRGTFEIGMAVVTRASADGFGGGTVYYPTDTSEGTFGAVAVSPGYSSSQAAIAWLGPRLASQGFVVFTIDTLSTSDSPTRRGDQVLAALSFLGRTELADRIDPDRLAVMGHSMGGGGSLEAAKDYPALQAIVPMTPWSVDKTFPEVTAPTLVIGAEDDVVARPRSHAEPIYESLPADGDKAYLELRDASHSAPSAPNTLIARYSLSWLKRYVDDDERYQQFLCPPPAVDDEISEYRSTCA [DP089]	52	< 25	–	< 3	4	19	–	–	–	–	–	–	–	–	–	–	–	–	20	–
DEIGQAPTAGNITGNGSFTTTSESISSLVSGFGGGRVYYPTTAGKYPVVAISPGFTATWSSLSWIGPRLSSWGFVVVGIETNSIYDQPASRGSQLLAALNWAVNSSSSAVRARVDGSRRGVAGHSMGGGGTLEALAADTTGLVKAGVPIAPWNSDKTWNNVSEPVMIVGGQSDTVAPVASHSIPFYNTLAGPKGYVELTGASHFFPQSTNATLSRALVAWFKRWLNQDSRFTPYTCGFSGLAVSDFRSNAC [ESM090]	68.5	116	< 3	27	46	65	< 3	12	35	51	–	–	–	–	–	–	–	–	–	–
DEIGQAPTASNITGNGSFATTSASISSTVAGFGGGRVYYPTATGTYPVIAISPGFTATWSSLSWIGPRLSSWGFVVVGIETNSIYDQPGSRGSQLLAALNWAVSSSPTAVRSRVDGSRRGVAGHSMGGGGTLEALAADTSGLVKAGVPLAPWNSDKTWNNVSEPVLIVGGQSDTIAPVSSHSVPFYNTLAGPKTYVELTGASHFFPQSSNATTSRALVSWFKRWLNQDSRFTPFTCGFSGAAVSSFRTNAC [ESM093]	65.2	93.2	< 3	25	44	72	< 3	7	23	39	–	–	–	–	–	–	–	–	–	–
DEIGQAPTASNITGNGSFATTSESISSLVSGFGGGRVYYPTATGRYPVIAISPGFTATWSSLAWIGPRLSSWGFVVVGIETNSIYDQPGSRGNQLLAALNWAVNSSSTAVRSRVDGSRRGVAGHSMGGGGTLEALAADTSGLVKAGVPLAPWNTDKIWSNVSEPVLIVGGQADTIAPVATHSVPFYNTLAGPKTYVELTGASHFFPQTTNATTSRALVSWFKRWLNQDSRFTPYTCGFGGLAVSDFRSNAC [ESM147]	67.9	75.4	11	29	31	46	< 3	22	42	81	–	–	–	–	–	–	–	–	–	–
DEIGQAPTSSNITGNGSFSVATYNISSLVSGFGGGVAYYPTTSGRYPVIAVSPGFTARWSSISWIGPRLASWGFVVVGIETNSIYDQPGSRGSQLLAALNWAVNSAPSSVRDRVDGSRRGVAGHSMGGGGTLEALAADTTGLVKAGVPIAPWNTDTTWGGLNEAVQIVGGESDTIAPVSSHSIPFYSTLGGPKSYVELNGASHFFPQTSNSTLSRALVSWFKRYLNNDARFTPFTCGYSGLSISDFRSNNC [ESM144]	50.2	89.1	< 3	< 3	< 3	6	< 3	< 3	< 3	< 3	–	–	–	–	–	–	–	–	–	–
DEIGQAPTSSNITGNGSFSVSTYNISSLVTGFGGGVAYYPSTAGRYPVVAVSPGFTARWSSISWIGPRLASWGFVVVGIETNSVYDQPASRGSQLLAALNWAVNSAPSAITSRADGSRRGVAGHSMGGGGTLEALAADTTGNVKAGVPLAPWNSDKTWNNVNEPVQIIGGESDTVAGVSSHSIPFYNSLGGSKSYVELNGASHFFPQTTNATTSRALVSWFKRWLNQDARFTPFTCGYGGTAVSDFRTNAC [ESM177]	54.4	71.4	< 3	< 3	13	42	< 3	< 3	< 3	7	–	–	–	–	–	–	–	–	–	–
DPPTHAKGVKPGPSELAAPSASDLAADGPHAVTTTAISGSVTPGFGAATIYAPASGSGYGGVAISPGYMSTQSAVSWLGPRLASHGFVVITFDTTTIWDNPDSRGVQLLAALDYLTGSSPARGQVDASRLAVMGHSMGGGGSLAAAKSRPSIDAAIPLTPWHTDKTWPEVSTPTLIVGAENDGIAPVASHAEPFYESLATSTDRAYLELNAATHSAPNSENAQISTYSLAWLKRFVDGDTSVDPILCPGPAASSTVEEYRSSCPF [DP019]	42.7	28	–	< 3	< 3	< 3	–	–	–	–	–	–	–	–	–	–	–	–	< 3	–
